Assay results taken from patent US20240201179A1 (Harvard, published 2024).

Target: T1, RBD from MERS-CoV (MERS-CoV, UniProt K9N5Q8 367-606)
T1 construct: domain: RBD
Assay: fluorescence response of the sensor (FIG. 12)

B1: VHH72 noK V104NBDxK (VHH72 noK V104K functionalized with NBDx-NHS at the V104K position) (VHH)
VHH: QVQLQESGGGLVQAGGSLRLSCAASGRTFSEYAMGWFRQAPGREREFVATISWSGGSTYYTDSVRGRFTISRDNARNTVYLQMNSLRPDDTAVYYCAAAGLGTKVSEWDYDYDYWGQGTQVTVSS
notes: also called nanoX; NanoX
binding result: no binding
